Reference: paper PMC6488192 (2019)

B1: RNA Editing Helicase 2 (REH2) wild type with TAP tag [T. brucei] / REH2-Associated Factor 1 (^H2F1), endogenous [T. brucei (endogenous in Lister 427 29-13 procyclic cells)] (parent complex)
chain 1: FQTQEITPGEVSLVEATDESDRAFGETRKEDFSFDGSSEFPECFKDTKHVDTFSRARVVSFIKRFSQGAVTSSSEVFEGREIVNDNGTPLYHSRVRLPFRSHTGELWAHGVACNSKDAELLAAMHAEHIIDEFGYHIYTLPSMQRKHAEAARKAGRWAPLPDELERTQSPVRVPLPLRRIVDRDETEGGKWLLIDMRPNHYISPSHTLLSPCLFDTTAVHRIKSFLDEHKLSFAQLCTSVEEPGEGGGQSWYVATVSLPPELSTFSEIKAQGKALNREAAVTLACMHAELVLDAHSICLYPSDSTKQKQHALAAWSYGRPAPLPGEDQKNPSHVVCPLPLKQLAVRREDRISCISYEEDIIRRHRALTDQTCEFIETPTLDSSAVEQLKQFLQRENVPRTDPFLVEEVNGYYKATVVLPLPDLYGIRGGVGIAMNATDARVLAAMHAIDVLNILGFHLMDGSTARAEWIAARRARGESVPADTRDPNVLSPSGRRRVATGNSSTQTPSSSTNARSVAAAPDVGTSDPTAPQNTKRRVAKRARVADAQPTEEKDAANSDSDEATSYLKMRETVSKELWNLEPDSPDGYIMVSPTDPETRTQFEQALYSPRQVDLGSKSRIKNYLASVGRRIEEVFFVQRIEAEDNGGQAICRCAVNLPVPRRFGDRIALGEAVDPKDAENLAAMHAELILDTLGIPIYTDSALQRLHVRLCAKCGRNAPVEYSESVAAATASPPPLRREVVGSIHWENKSKRRRAAISVQKGGGPANSQETTSALREDEEPLIAPKERREYTFVPEKDLDLVSRARVHYYLRRNGIAKLEPEYRMELRGLGNVLHIAELTLPLPDVYGKRVAHGSALTKRDAEILCWMHAEQILDAVGLCLFDNLPMLQRRHVECVKRLGRWAPLVSENATKPPHTPTPLPLTLGTTQEKPQYPTPPTNVRQDWEQYAQECQRYIEINVMREHNIFYEMGKTPRTGDETYDAALAEVESMPIDPDAKTVLQRYCNVANVNYPTFWKSRTVGPISCRVCLTTIEVPGHEYLRASGVAWNKEASQRQAAMHALALLRRVEPDFAEFEKQIKAEVVDKVNLVDPAAVLDEEAPVLRRTARVSKKSLGNWDPVSKDFSHEGKVRIIELFTVCFGLQPPLVRHLNRRSGSFVQHFTVVEVTDEDGKTWVGTGRDAGPRFNEPAAFDDLFSKLSRGVQGFQALMDLIRAHPHLDPEHIANVSLTDSQKERILKAVDGLPMVEEEDVAHPEQWADADSDRGIGIMALIAMDASQRAQESQELEAKLQAKLTNEEYQTRYASQRQRLRIYEKRDEILRAISSNQIVIICGTTGCGKTTQVPQYILDDMTEKGMGGDCSIVITQPRRLSAVSIARRVAAERLESIGETCGYSIRLDAKPGRNINFCTSGVLLRLLHSAPLLNGINYLIIDEIHERDINSDFLLILLRQLLHRRKDLHVILMSATLQADQFGKYFGNAPIINVEGYVHAVEEMYLEDLVPIATERNVMTPLLKEAAAALERNGAADGFCPTVVPPTAKYGFLEATADIDYMTIQIAIDHAVRSLDLTDSSILVFLPGWDEINRAKEILERNAKFHIICLHSSVGAEEQMRCFLPAPEGKIKLILSTNIAESGVTIDDVAAVIDVGRGKEKSYVMRKGTTSVGRNEMGSMSQLVTVYASRANCVQRRGRVGRTRPGMCIRLYSKKHFQSLHDFQTPEMLRTHLDSLCLQILALDLGDPADFLQQALEPPSSDHIEAAMKRLHELGATTSTRQLTPLGLRLSRLPVAPKVGKMVIMGAILRCLDSALTIAGVSDTDVFISTREHREAVRLHKEDLSYGTQSDVIASVNAFNFWVTSHYAKTPAEVVYDLQERMLSVPQLLTVSKYKQQFFEIVAGSGFIHMKQNYKDAKNKDRADIFVDQSEYSADSLNVGLVKCVVASGLFPNVVMNRGKRLMRNKLANRLDPSSASVVHRTSQENIGQPYFVYDELVKSSESERLLVRDLTNVSLWTILLMGTSSMPVTYRDDLNLAVVDEWIMFRATFGTLELIRKFKRALNVCLGRKFMNPNDEENNAKLEELRCIIKELVCTPFKPNDLAEKPWEEKGVIIEPCTEPKGGSSEAEKTHVNSSHTPTTSAEAGGDS
chain 2: CHHPLRIPSVQLAAPRSHTHEDIAYASCPACSRVVHMCDMLTHLITAHRELDQTHCRKMCTERLALYERVIGVPLKKSELTSSGRRVLDFLPTVLPTGYMCNWCDRRSDVYATRDKFLKHVADVHTDIDLEEVEPHVPLPPRGVVVEKSNGDGGPQPTRRLNGVVAVAEKSEPINAVPRILGISLPRGVDRPLKATAQFSDTEFPCELCNRTFNSEIDLLQHLETRHPDGTAEGPAGVDSAAIADVAQFSAKEATTGGDQRVHVICDLCVSSSKVYKMPSALFSHIRFKHPNEDAAFHVERLIREQKTVSSFVCTVCQKAFASAAALDGHFNSKHAEQGEAQNVVGRVTANNCWWCHDCEKGFSSAKGLHGHMQNKHGLSSQTHPCPACKRVFADIYSLEEHLSLQHKTIRLSDIGLLTHVKCSTCERFFLSHEDLHRHAVKHHKKDPRAPAQPFEAPTSASHVAASTSAAVPSEVEATASPQGPRKVKKRKKTTEVSEVTS

Variants of: B1
Test: IgG pulldown of TAP-tagged REH2, western blot quantification; parent: 1; read off a plot

Variant | ratio to parent
chain 1 R1993A | ~0.92
chain 1 H1968E | ~0.97
chain 1 R1949A | ~1.1
chain 1 K1048A, chain 1 A1056D | ~1
